Publication PMC8041205

Assays:
[1] = target: commercially available recombinant MyD88 (UniProt Q99836); assay: ITC; 1 uM rTcpC in PBS in the titration pool, 0.1 uM UBE2D1 or rMyD88 in PBS in the sample pool; VP-ITC microcalorimeter
BSA = assay: SPR; settings: natural protein

recombinant TcpC (Toll/interleukin-1 receptor domain-containing protein encoded by E. coli) (from UniProt A0A0H2V8B5 1-307), sequence (A0A0H2V8B5 whole entry, the tested form may be a part): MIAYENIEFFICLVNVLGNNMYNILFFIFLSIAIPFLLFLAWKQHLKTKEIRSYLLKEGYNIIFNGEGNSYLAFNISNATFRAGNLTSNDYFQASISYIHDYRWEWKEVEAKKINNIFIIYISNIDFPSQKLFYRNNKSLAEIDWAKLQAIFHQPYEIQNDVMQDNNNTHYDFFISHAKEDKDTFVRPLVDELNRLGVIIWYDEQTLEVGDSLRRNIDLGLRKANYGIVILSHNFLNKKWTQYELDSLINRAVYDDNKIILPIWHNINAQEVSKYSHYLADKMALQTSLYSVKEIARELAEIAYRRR
recombinant TcpC (Toll/interleukin-1 receptor domain-containing protein encoded by E. coli) (from UniProt A0A0H2V8B5 1-307) (natural protein; other documents disagree on this pair), sequence (A0A0H2V8B5 whole entry, the tested form may be a part): as above
commercially available recombinant MyD88, sequence (Q99836 whole entry): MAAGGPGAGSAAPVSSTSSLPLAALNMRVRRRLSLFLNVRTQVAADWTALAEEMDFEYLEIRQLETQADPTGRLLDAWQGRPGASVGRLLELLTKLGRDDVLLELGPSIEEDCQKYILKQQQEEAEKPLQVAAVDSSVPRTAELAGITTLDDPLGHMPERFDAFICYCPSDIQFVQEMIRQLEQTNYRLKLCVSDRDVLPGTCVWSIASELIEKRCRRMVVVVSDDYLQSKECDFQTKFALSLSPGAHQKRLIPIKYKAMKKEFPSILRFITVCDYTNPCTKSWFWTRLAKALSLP

| Substance | Kd [1] | Kd (BSA) |
| --- | --- | --- |
| recombinant TcpC (Toll/interleukin-1 receptor domain-containing protein encoded by E. coli) (from UniProt A0A0H2V8B5 1-307) (natural protein; other documents disagree on this pair) | 539 nM | – |
| recombinant TcpC (Toll/interleukin-1 receptor domain-containing protein encoded by E. coli) (from UniProt A0A0H2V8B5 1-307) | – | > 10 mM |
